Experimental data published in article PMC12005729.
Values belong to the substance of their own block, whether it stands above or below them.

Tests used:
Test in all cases: native gel or EMSA + other: dynamic light scattering; self-assembly into the 24-mer cage; DLS at 25 °C, 1 µM protein in 50 mM Tris-HCl, pH 8, 150 mM NaCl
[1] = target: Fr‐F1 (Fr‐R59F), mutant of recombinant horse spleen apo‐L ferritin (horse)
[2] = target: Fr‐F6 (Fr‐E53F/E56F/E57F/R59F/E60F/E63F), mutant of recombinant horse spleen apo‐L ferritin (horse)
[3] = target: Fr‐F5/59A (Fr‐E53F/E56F/E57F/R59A/E60F/E63F), mutant of recombinant horse spleen apo‐L ferritin (horse)
[4] = target: Fr‐F5/59L (Fr‐E53F/E56F/E57F/R59L/E60F/E63F), mutant of recombinant horse spleen apo‐L ferritin (horse)
[5] = target: Fr‐F4 (Fr‐R52F/E56F/R59F/E63F), mutant of recombinant horse spleen apo‐L ferritin (horse)
[6] = target: Fr‐F2 (Fr‐E56F/R59F), mutant of recombinant horse spleen apo‐L ferritin (horse)

Substance: Fr‐F1 (Fr‐R59F), mutant of recombinant horse spleen apo‐L ferritin (natural protein)
stoichiometry N [1]: 24

Substance: Fr‐F6 (Fr‐E53F/E56F/E57F/R59F/E60F/E63F), mutant of recombinant horse spleen apo‐L ferritin (natural protein)
stoichiometry N [2]: 24

Substance: Fr‐F5/59A (Fr‐E53F/E56F/E57F/R59A/E60F/E63F), mutant of recombinant horse spleen apo‐L ferritin (natural protein)
stoichiometry N [3]: 24

Substance: Fr‐F5/59L (Fr‐E53F/E56F/E57F/R59L/E60F/E63F), mutant of recombinant horse spleen apo‐L ferritin (natural protein)
stoichiometry N [4]: 24

Next, values leading:

stoichiometry N [5]: 24
Substance: Fr‐F4 (Fr‐R52F/E56F/R59F/E63F), mutant of recombinant horse spleen apo‐L ferritin (natural protein)

stoichiometry N [6]: 24
Substance: Fr‐F2 (Fr‐E56F/R59F), mutant of recombinant horse spleen apo‐L ferritin (natural protein)
